Laboratory results: article doi:10.1101/2025.06.27.661840 (bioRxiv, 2025)
Where two headings read alike, the source gives them in different places.

Assays:
Test in all cases: cryo-EM structure
[1] = target: large tegument protein VP1/2 (ORF22) (Varicella-zoster virus (parental Oka strain, recombinant pOka-TK-RFP)) (UniProt P09278)
cryo-EM structure [2] = target: the molecule itself
cryo-EM structure [3] = target: the molecule itself; remark: listed apart in the source

| Molecule | stoichiometry N (cryo-EM structure [3]) | further results |
| --- | --- | --- |
| large tegument protein VP1/2 (ORF22), P09278 1-2763 | – | stoichiometry N [1]: 2 |
| VZV portal protein (pORF54) (natural protein, UniProt P09302 1-769, looked up) MAEITSLFNNSSGSEEKRIASSVSIDQGLNGSNPNDQYKNMFDIYWNEYAPDIGFCTFPEEDGWMLIHPTTQSMLFRKILAGDFGYTDGQGIYSAVRSTETVIRQVQATVLMNALDATRYEDLAADWEHHIQQCNLHAGALAERYGLCGESEAVRLAHQVFETWRQTLQSSLLEFLRGITGCLYTSGLNGRVGFAKYVDWIACVGIVPVVRKVRSEQNGTPAPLNTYMGQAAELSQMLKVADATLARGAAVVTSLVECMQNVAIMDYDRTRLYYNYNRRLIMAKDDVTGMKGECLVVWPPVVCGEGVVFDSPLQRLSGEVLACYALREHARVCQVLNTAPLRVLIGRRNEDDRSHSTRAVDRIMGENDTTRAGSAASRLVKLIVNLKNMRHVGDITETVRSYLEETGNHILEGSGSVDTSQPGFGKANQSFNGGAMSGTTNVQSAFKTSVVNSINGMLEGYVNNLFKTIEGLKDVNSDLTERLQFKEGELKRLREERVKIKPSKGSHITMAEETRIADLNHEVIDLTGIIGDDAYIANSFQSRYIPPYGDDIKRLSELWKQELVRCFKLHRVNNNQGQEISVSYSNASISLLVAPYFSFILRATRLGFLVTQSEVHRSEEELCQAIFKKARTESYLSQIRILYEMQVRAEVIKRGPRRTPSPSWGLPDPTEDDERIPEPNKINNQYMHVGYKNLSHFMKGHPPERLRVHKVNAADSTLLDKIRANRRRGDGRWDVRNKYTQHFRLQRNDRQLTNTSRRGVGCERRDRRS | – | stoichiometry N (cryo-EM structure [2]): 12 |
| major capsid protein (MCP; ORF40) (natural protein, UniProt P09245 1-1396, looked up) MTTVSCPANVITTTESDRIAGLFNIPAGIIPTGNVLSTIEVCAHRCIFDFFKQIRSDDNSLYSAQFDILLGTYCNTLNFVRFLELGLSVACICTKFPELAYVRDGVIQFEVQQPMIARDGPHPVDQPVHNYMVKRIHKRSLSAAFAIASEALSLLSNTYVDGTEIDSSLRIRAIQQMARNLRTVLDSFERGTADQLLGVLLEKAPPLSLLSPINKFQPEGHLNRVARAALLSDLKRRVCADMFFMTRHAREPRLISAYLSDMVSCTQPSVMVSRITHTNTRGRQVDGVLVTTATLKRQLLQGILQIDDTAADVPVTYGEMVLQGTNLVTALVMGKAVRGMDDVARHLLDITDPNTLNIPSIPPQSNSDSTTAGLPVNARVPADLVIVGDKLVFLEALERRVYQATRVAYPLIGNIDITFIMPMGVFQANSMDRYTRHAGDFSTVSEQDPRQFPPQGIFFYNKDGILTQLTLRDAMGTICHSSLLDVEATLVALRQQHLDRQCYFGVYVAEGTEDTLDVQMGRFMETWADMMPHHPHWVNEHLTILQFIAPSNPRLRFELNPAFDFFVAPGDVDLPGPQRPPEAMPTVNATLRIINGNIPVPLCPISFRDCRGTQLGLGRHTMTPATIKAVKDTFEDRAYPTIFYMLEAVIHGNERNFCALLRLLTQCIRGYWEQSHRVAFVNNFHMLMYITTYLGNGELPEVCINIYRDLLQHVRALRQTITDFTIQGEGHNGETSEALNNILTDDTFIAPILWDCDALIYRDEAARDRLPAIRVSGRNGYQALHFVDMAGHNFQRRDNVLIHGRPVRGDTGQGIPITPHHDREWGILSKIYYYIVIPAFSRGSCCTMGVRYDRLYPALQAVIVPEIPADEEAPTTPEDPRHPLHAHQLVPNSLNVYFHNAHLTVDGDALLTLQELMGDMAERTTAILVSSAPDAGAATATTRNMRIYDGALYHGLIMMAYQAYDETIATGTFFYPVPVNPLFACPEHLASLRGMTNARRVLAKMVPPIPPFLGANHHATIRQPVAYHVTHSKSDFNTLTYSLLGGYFKFTPISLTHQLRTGFHPGIAFTVVRQDRFATEQLLYAERASESYFVGQIQVHHHDAIGGVNFTLTQPRAHVDLGVGYTAVCATAALRCPLTDMGNTAQNLFFSRGGVPMLHDNVTESLRRITASGGRLNPTEPLPIFGGLRPATSAGIARGQASVCEFVAMPVSTDLQYFRTACNPRGRASGMLYMGDRDADIEAIMFDHTQSDVAYTDRATLNPWASQKHSYGDRLYNGTYNLTGASPIYSPCFKFFTPAEVNTNCNTLDRLLMEAKAVASQSSTDTEYQFKRPPGSTEMTQDPCGLFQEAYPPLCSSDAAMLRTAHAGETGADEVHLAQYLIRDASPLRGCLPLPR | 6 | – |
| capsid vertex-specific component 2 (CVC2; ORF34) (natural protein, UniProt P09287 1-579, looked up) MTARYGFGSISFPNKCGIFLSTTKNFIAPNFPIHYWTAPAFELRGRMNPDLEKNTLTLKNAAAVAALDNLRGETITLPTEIDRRLKPLEEQLTRMAKVLDSLETAAAEAEEADAQSEECTRTEIIRNESIHPEVQIAKNDAPLQYDTNFQVDFITLVYLGRARGNNSPGIVFGPWYRTLQERLVLDRPVAARGVDCKDGRISRTFMNTTVTCLQSAGRMYVGDRAYSAFECAVLCLYLMYRTSNSVHEPQVSSFGNLIEHLPEYTETFVNYMTTHENKNSYQFCYDRLPRDQFHARGGRYDQGALTSHSVMDALIRLQVLPPAPGQFNPGVNDIIDRNHTAYVDKIQQAAAAYLERAQNVFLMEDQTLLRLTIDTITALLLLRRLLWNGNVYGDKLKNNFQLGLIVSEATGTPTNNVILRGATGFDGKFKSGNNNFQFLCERYIAPLYTLNRTTELTEMFPGLVALCLDAHTQLSRGSLGRTVIDISSGQYQDRLISLIALELEHRRQNVTSLPIAAVVSIHDSVMLQYERGLGMLMHQPRVRAALEESRRLAQFNVNSDYDLLYFVCLGVIPQFASTP | 2 | – |
| capsid triplex protein 2 (TRX2; ORF41) (natural protein, UniProt P09291 1-316, looked up) MAMPFEIEVLLPGELSPAETSALQKCEGKIITFSTLRHRASLVDIALSSYYINGAPPDTLSLLEAYRMRFAAVITRVIPGKLLAHAIGVGTPTPGLFIQNTSPVDLCNGDYICLLPPVFGSADSIRLDSVGLEIVFPLTIPQTLMREIIAKVVARAVERTAAGAQILPHEVLRGADVICYNGRRYELETNLQHRDGSDAAIRTLVLNLMFSINEGCLLLLALIPTLLVQGAHDGYVNLLIQTANCVRETGQLINIPPMPRIQDGHRRFPIYETISSWISTSSRLGDTLGTRAILRVCVFDGPSTVHPGDRTAVIQV | 2 | – |
